# Measured values published in patent publication US20220289850 (published 2022).
# Legend:
# [1] = molecular target: T1, mouse integrin avb8 (mouse); assay: FACS C8-S cells
# T1 chain 1: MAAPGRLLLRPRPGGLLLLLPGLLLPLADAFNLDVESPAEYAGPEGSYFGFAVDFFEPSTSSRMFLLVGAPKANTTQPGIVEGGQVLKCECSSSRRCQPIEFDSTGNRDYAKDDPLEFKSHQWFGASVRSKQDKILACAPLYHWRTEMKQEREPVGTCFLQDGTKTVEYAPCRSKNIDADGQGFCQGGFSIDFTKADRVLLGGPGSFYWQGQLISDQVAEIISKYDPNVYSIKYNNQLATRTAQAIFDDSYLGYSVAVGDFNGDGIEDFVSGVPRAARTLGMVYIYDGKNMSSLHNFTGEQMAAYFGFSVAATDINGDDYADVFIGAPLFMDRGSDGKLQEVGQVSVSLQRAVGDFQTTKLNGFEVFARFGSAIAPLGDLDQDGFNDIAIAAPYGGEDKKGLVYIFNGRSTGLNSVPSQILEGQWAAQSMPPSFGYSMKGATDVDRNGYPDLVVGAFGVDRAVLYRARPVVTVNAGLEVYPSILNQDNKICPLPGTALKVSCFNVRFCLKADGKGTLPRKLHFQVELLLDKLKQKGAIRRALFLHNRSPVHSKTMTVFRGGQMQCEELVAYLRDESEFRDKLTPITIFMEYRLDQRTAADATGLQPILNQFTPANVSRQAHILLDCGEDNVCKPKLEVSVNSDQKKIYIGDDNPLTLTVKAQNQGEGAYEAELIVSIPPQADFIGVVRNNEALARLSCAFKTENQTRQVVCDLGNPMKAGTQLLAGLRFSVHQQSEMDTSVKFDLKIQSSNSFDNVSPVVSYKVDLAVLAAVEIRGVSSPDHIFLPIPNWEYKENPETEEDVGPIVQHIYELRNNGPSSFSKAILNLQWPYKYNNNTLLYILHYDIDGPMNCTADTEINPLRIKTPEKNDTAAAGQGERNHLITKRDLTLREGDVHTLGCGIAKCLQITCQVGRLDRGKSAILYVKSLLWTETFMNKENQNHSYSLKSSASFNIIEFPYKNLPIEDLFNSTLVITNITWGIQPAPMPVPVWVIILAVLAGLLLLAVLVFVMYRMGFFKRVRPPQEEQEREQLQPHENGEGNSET
# T1 chain 2: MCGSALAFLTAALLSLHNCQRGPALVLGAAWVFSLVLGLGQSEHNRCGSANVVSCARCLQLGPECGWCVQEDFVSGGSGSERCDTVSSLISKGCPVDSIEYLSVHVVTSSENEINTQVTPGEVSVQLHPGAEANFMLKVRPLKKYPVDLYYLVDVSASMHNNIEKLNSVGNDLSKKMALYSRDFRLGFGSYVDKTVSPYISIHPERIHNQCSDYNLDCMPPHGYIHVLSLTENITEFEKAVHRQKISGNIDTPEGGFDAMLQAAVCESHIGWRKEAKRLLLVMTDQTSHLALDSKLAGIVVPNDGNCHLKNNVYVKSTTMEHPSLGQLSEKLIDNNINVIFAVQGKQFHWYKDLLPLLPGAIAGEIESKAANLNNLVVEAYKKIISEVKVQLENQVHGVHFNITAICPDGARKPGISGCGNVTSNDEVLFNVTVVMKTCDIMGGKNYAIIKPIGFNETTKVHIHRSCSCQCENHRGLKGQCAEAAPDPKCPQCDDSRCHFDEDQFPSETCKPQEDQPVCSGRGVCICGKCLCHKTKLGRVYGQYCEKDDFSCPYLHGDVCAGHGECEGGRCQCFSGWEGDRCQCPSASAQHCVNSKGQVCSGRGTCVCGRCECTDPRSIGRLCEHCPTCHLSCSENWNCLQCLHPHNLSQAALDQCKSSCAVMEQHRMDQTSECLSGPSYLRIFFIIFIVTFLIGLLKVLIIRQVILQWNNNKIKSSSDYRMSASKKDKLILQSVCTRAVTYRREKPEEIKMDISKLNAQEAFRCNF
# [2] = molecular target: T1, mouse integrin avb8; assay: SPR
Binder,EC50 [1] [nM],Kd [2] [nM]
ADWA11 2.4 IgG (antibody) chain 1: EVQLVESGGGLVQPGGSLRLSCAASGFNIKDYYMNWVRQAPGKGLEWVGWIDPDQGNTIYEPKFQGRFTISADTSKNSAYLQMNSLRAEDTAVYYCARRLLMDYWGQGTLVTVSSASTKGPSVFPLAPSSKSTSGGTAALGCLVKDYFPEPVTVSWNSGALTSGVHTFPAVLQSSGLYSLSSVVTVPSSSLGTQTYICNVNHKPSNTKVDKKVEPKSCDKTHTCPPCPAPEAAGAPSVFLFPPKPKDTLMISRTPEVTCVVVDVSHEDPEVKFNWYVDGVEVHNAKTKPREEQYNSTYRVVSVLTVLHQDWLNGKEYKCKVSNKALPAPIEKTISKAKGQPREPQVYTLPPSREEMTKNQVSLTCLVKGFYPSDIAVEWESNGQPENNYKTTPPVLDSDGSFFLYSKLTVDKSRWQQGNVFSCSVMHEALHNHYTQKSLSLSPGK chain 2: DIQMTQSPSSLSASVGDRVTITCRSTKSLSHFNGNTYLFWYQQKPGKAPKRLIYYMSSLASGVPSRFSGSGSGTDFTLTISSLQPEDFATYYCQQSLEYPFTFGGGTKVEIKRTVAAPSVFIFPPSDEQLKSGTASVVCLLNNFYPREAKVQWKVDNALQSGNSQESVTEQDSKDSTYSLSSTLTLSKADYEKHKVYACEVTHQGLSSPVTKSFNRGEC,0.145,–
"ADWA11 2.4 Fab (antibody, V domains shown) VH: EVQLVESGGGLVQPGGSLRLSCAASGFNIKDYYMNWVRQAPGKGLEWVGWIDPDQGNTIYEPKFQGRFTISADTSKNSAYLQMNSLRAEDTAVYYCARRLLMDYWGQGTLVTVSS VL: DIQMTQSPSSLSASVGDRVTITCRSTKSLSHFNGNTYLFWYQQKPGKAPKRLIYYMSSLASGVPSRFSGSGSGTDFTLTISSLQPEDFATYYCQQSLEYPFTFGGGTKVEIK",–,0.0708
